For assay [1], the target named is recombinant human TLR4 protein (ectodomain, Glu24-Lys631) (human) (UniProt O00206). Nature of the assay: SPR; Biacore T200; TLR4 immobilised on a CM5 chip by amine coupling; HMGB1 or synthetic PSMs in 10 mM acetate buffer (pH 5.2) run over at gradient concentrations; 25°C, 30 µL/min; apparent KD. (In general: SPR reads the build-up and loss of mass on a sensor chip optically.)

Assay [2] addresses T1, recombinant human TLR4 protein (ectodomain, Glu24-Lys631) (human, UniProt O00206 24-631).
T1 construct: human toll-like receptor 4, Glu24-Lys631, the ectodomain with no transmembrane domain; followed by a C-terminal Ser and 10-His tag; also called hTLR4; toll-like receptor 4; source: bought: R&D Systems (Catalog Number 1478-TR); not shown: His10 (after a Ser), C-terminal, kept
Described as above. The conditions noted are these: both partners purified.

Sequence of recombinant human TLR4 protein (ectodomain, Glu24-Lys631) (human) (O00206 24-631): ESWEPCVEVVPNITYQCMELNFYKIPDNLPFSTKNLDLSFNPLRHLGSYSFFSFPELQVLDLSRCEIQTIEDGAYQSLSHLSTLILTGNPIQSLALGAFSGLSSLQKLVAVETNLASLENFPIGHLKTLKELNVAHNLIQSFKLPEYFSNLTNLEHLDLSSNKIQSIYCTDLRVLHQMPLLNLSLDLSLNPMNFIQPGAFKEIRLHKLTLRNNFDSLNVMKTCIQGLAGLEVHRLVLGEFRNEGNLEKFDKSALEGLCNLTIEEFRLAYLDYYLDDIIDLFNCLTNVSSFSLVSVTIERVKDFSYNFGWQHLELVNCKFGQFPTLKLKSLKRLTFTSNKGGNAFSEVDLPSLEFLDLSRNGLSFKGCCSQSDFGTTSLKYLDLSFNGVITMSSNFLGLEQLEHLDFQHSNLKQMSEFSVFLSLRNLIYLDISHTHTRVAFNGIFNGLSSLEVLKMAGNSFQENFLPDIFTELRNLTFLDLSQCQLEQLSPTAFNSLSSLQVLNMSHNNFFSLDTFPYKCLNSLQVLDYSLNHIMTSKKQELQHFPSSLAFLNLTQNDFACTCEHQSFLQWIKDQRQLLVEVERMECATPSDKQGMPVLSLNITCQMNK
T1 sequence (O00206 24-631): as above

For “Staphylococcus aureus phenol-soluble modulin α1 (peptide)”, the Kd in assay [1] stood at 3.81 µM.
On the same count and under the same terms, for “Staphylococcus aureus phenol-soluble modulin α3 (peptide)” the value was 3 µM; for “Staphylococcus aureus phenol-soluble modulin β1 (peptide)”, 3.79 µM; for “Staphylococcus aureus phenol-soluble modulin α2 (peptide)”, 3.24 µM.
Take “Staphylococcus aureus phenol-soluble modulin β2 (peptide)”: the Kd in assay [1] is 7.78 µM.

B1: recombinant disulfide HMGB1 protein (natural protein)
chain: MGKGDPKKPRGKMSSYAFFVQTCREEHKKKHPDASVNFSEFSKKCSERWKTMSAKEKGKFEDMAKADKARYEREMKTYIPPKGETKKKFKDPNAPKRPPSAFFLFCSEYRPKIKGEHPGLSIGDVAKKLGEMWNNTAADDKQPYEKKAAKLKEKYEKDIAAYRAKGKPDAAKKGVVKAEKSKKKKEEEEDEEDEEDEEEEEDEEDEDEEEDDDDE
modifications: disulfide bond between cysteines 23 and 45; reduced thiol on cysteine 106
notes: high mobility group box-1 protein; also called high mobility group box-1 protein; source: recombinant, provided by Kevin Tracey (The Feinstein Institute for Medical Research)
Regarding B1, the Kd in assay [2] was 9.2 µM.

Source of the values: publication PMC5996891, “Staphylococcus aureus Phenol-Soluble Modulins α1–α3 Act as Novel Toll-Like Receptor (TLR) 4 Antagonists to Inhibit HMGB1/TLR4/NF-κB Signaling Pathway” (Frontiers in Immunology, 2018).
